The results in this text go back to patent publication US20250281533A1 (LG CHEM, published 2025).

Where only a bound is given, the exact number is not on record here.

The chains are these.
B1: scFv 2447_3C08 (scFv)
scFv: EVQLLESGGGLVQPGGSLRLSCAASGFTFDDYAMHWVRQAPGKGLEWVSGISWNSGSIGYADSVKGRFTISRDNAKNSLYLQMNSLRAEDTALYYCAKDRGSGYEGNYYGMDVWGQGTLVTVSSGGGGSGGGGSGGGASSYELTQDPAVSVALGQTVRITCQGDSLRSYYASWYQQKPGQAPVLVIYGKNNRPSGIPDRFSGTTSGNTASLTITGAQAEDEADYYCNSRDSSGNHYVFGTGTKVTVL
B2: scFv 2447_2H08 (scFv)
scFv: EVQLVQSGAEVKKPGASVKVSCKASGYTFTNYGISWVRQAPGQGLEWMGWISAYNGNTNYAQKLQGRVTMTTDTSTSTAYMELRSLRSDDTAVYYCARDPHILTGYYRGGWFDPWGQGTTVTVSSGGGGSGGGGSGGGASSYELTQDPAVSVALGQTVTITCQGDSLRTSYAGWLQQKPGQAPVLVLYGKTSRPSGIPDRFSGSTSGNTASLTITGAQAEDEAEYFCHSRDSNDNYLEVVFGGGTKLTVL
B3: scFv 2447_3B07 (scFv)
scFv: QVQLVESGGVVVQPGGSLRLSCAASGFTFDDYAMHWVRQAPGRGLEWVSLTSWDGGSTYYADSVKGRFTISRDNSKNSLYLQMNSLRAEDTALYYCAKDHSSGWYNGGMDVWGQGTMVTVSSGGGGSGGGGSGGGASSYELTQDPAVSVALGQTVRITCQGDSLRSYYASWYQQKPGQAPVLVIYGKNNRPSGIPDRFSGSSSGNTASLTITGAQAEDEADYYCNSRDSSGNHVVFGGGTKLTVL
B4: scFv 2447_3H02 (scFv)
scFv: EVQLLESGGGLVQPGRSLRLSCAASGFTFDDYAMHWVRQAPGKGLEWVSGISWDSGSIGYADSVKGRFTISRDNAKNSLYLQMNSLRAEDTALYYCAKDVSSGWYWYAFDIWGQGTLVTVSSGGGGSGGGGSGGGASSYELTQDPAVSVALGQTVRITCQGDILRSYYASWYQQKPGQAPVLVIYGKNNRPSGIPDRFSGSSSGNTASLTITGAQAEDEADYYCNSRDSSGNRVVFGGGTKLTVL
notes: also called #9
B5: scFv 2447_3H08 (scFv)
scFv: EVQLLESGGGLVQPGRSLRLSCAASGFTFDDYAMHWVRQAPGKGLEWVSGISWNSGSIDYADSVKGRFTISRDNSKNTLYLQMNSLRAEDTAVYYCARDRSSGWYTGSFDYWGQGTLVTVSSGGGGSGGGGSGGGASSYELTQDPAVSVALGQTVRITCQGDSLRSYYASWYRQKPGQAPVLVIYGKNNRPSGIPDRFSGSSSGNTASLTIIGAQAEDEADYYCQSRDSSDNRVLFGGGTKVTVL
notes: also called #10
B6: scFv 2445_1F09 (scFv)
scFv: EVQLLETGGGLIQPGGSLRLSCAASGFTVSSNYMSWVRQAPGKGLEWVSVIYSGGSTYYADSVKGRFTISRDNSKNTLYLQMNSLRAEDTAVYYCARDRGWNHGMDVWGQGTLVTVSSGGGGSGGGGSGGGASQSGLTQPPSASGTPGQRVTISCSGGSSEVGSRYVSWYQQLPGTAPRLLIYKNDRRPSGVPDRFSGSKSGSSASLAISGLRSEDEADYYCAAWDDSLNGYVFGTGTKLTVL

One assay addresses T1, C subunit of human MUC1 expressed in HEK293T cells (HEK293T-v1) (human, UniProt P15941 1098-1255, limits assumed).
T1 construct: domain: C subunit of MUC1; also called MUC1-C
T1 sequence (looked up): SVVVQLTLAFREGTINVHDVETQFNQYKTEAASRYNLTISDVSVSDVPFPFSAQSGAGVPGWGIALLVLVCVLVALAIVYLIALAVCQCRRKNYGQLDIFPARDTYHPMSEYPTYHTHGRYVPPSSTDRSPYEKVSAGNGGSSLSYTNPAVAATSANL
In words: flow cytometry (PE MFI, corrected to G03 at 380 ug/mL) on HEK293T-v1 cells expressing MUC1 C subunit. The protocol: (§1) The soluble scFv prepared in Example 1 was diluted 5-fold to prepare a total of 8 serial dilutions. Each serial dilution was 380 μg/mL, 76 μg/mL, 15.2 μg/mL, 3.04 μg/mL, 0.608 μg/mL, 0.1216 μg/mL, 0.02432 μg/mL, 0.004864 μg/mL. A buffer used in soluble scFv dilution and cell washing was PBS containing 2% FBS and 10 mM EDTA. Four kinds of cells were prepared at a density of 1×10⁶/mL, respectively, and put in a 96 well U-bottom cell culture plate at a density of 1×10⁵/100 μl/well, followed by centrifugation at 1500 RPM for 5 minutes. The soluble scFv prepared previously was treated in an amount of 50 μl/well. The cells were left at 4° C. for 1 hour. 150 μl/well of the cell washing buffer was added thereto and then mixed, followed by centrifugation at 1500 RPM for 5 minutes. The supernatant was discarded, and 200 μl/well of the cell washing buffer was added thereto and then mixed, followed by centrifugation at 1500 RPM for 5 minutes. A goat anti-human IgG Fc-biotin antibody (Invitrogen, A18821) was diluted 500-fold, and 50 μl/well thereof was treated. The cells were left at 4° C. for 20 minutes. 150 μl/well of the cell washing buffer was added thereto and then mixed, followed by centrifugation at 1500 RPM for 5 minutes. The supernatant was discarded, and 200 μl/well of the cell washing buffer was added thereto and then mixed, followed by centrifugation at 1500 RPM for 5 minutes. PE-Streptavidin (BD Pharmigen, 554061) was diluted 1000-fold, and 50 μl/well thereof was treated. The cells were left at 4° C. for 20 minutes. 150 μl/well of the cell washing buffer was added thereto and then mixed, followed by centrifugation at 1500 RPM for 5 minutes. The supernatant was discarded, and 200 μl/well of the cell washing buffer was added thereto and then mixed, followed by centrifugation at 1500 RPM for 5 minutes. 80 μl/well of the cell washing buffer was added and mixed, followed by flow cytometry.
The affinity of the soluble scFv to the mucin1-expressing cells was confirmed by PE MFI values from the results of the flow cytometry. Each cell line without soluble scFv was stained with another fluorescent antibody (Goat anti-human IgG Fc-biotin antibody, PE-Streptavidin), which was used as a negative control value, and each cell line was treated with G03 at a concentration of 380 μg/mL, which was used as a positive control value, and MFI value was corrected as follows: […]
(Flow cytometry measures light scatter and fluorescence of single cells or particles in a stream.)
A word on the EC50: it is the concentration that produces a half-maximal response. A high value points to a less potent agent. B1 displayed a half-maximal effective concentration (EC50) of 1.38 µg/mL.
For B2, the EC50 was found to be 21.7 µg/mL.
Regarding B3, a half-maximal response (EC50) required 3.86 µg/mL.
B4: the 50% effective concentration (EC50) turned out to be 1.41 µg/mL.
In turn, B5 returned an EC50 of 2.57 µg/mL.

The target of the next assay is T1, C subunit of human MUC1 expressed in …. In words: flow cytometry (PE MFI, corrected to G03 at 380 ug/mL) on HEK293T-v1 cells expressing MUC1 C subunit; 293T-v1 cells. The procedure: as §1, with “PE-Streptavidin (BD Pharmigen, 554061) was diluted 1000-fold, and 50 μl/well thereof was treated. The cells were left at 4° C. for 20 minutes. 150 μl/well of the cell washing buffer was added thereto and then mixed, followed by centrifugation at 1500 RPM for 5 minutes. The supernatant was discarded, and 200 μl/well of the cell washing buffer was added thereto and then mixed, followed by centrifugation at 1500 RPM for 5 minutes. 80 μl/well of the cell washing buffer was added and mixed, followed by flow cytometry.” left out
On to B6, for which the EC50 is more than 380 µg/mL.
